Measured values reported in patent publication US10294487B2, “Methods and compositions involving ALS variants with native substrate preference” (E I DU PONT DE NEMOURS AND COMPANY, priority 2012, dated 2019).

B1: GM-ALS_P178A_W555L: highly resistant allele (HRA) double mutant of Glycine max ALS1: P→A at 178 and W→L at 555 (protein)
chain: MAATASRTTRFSSSSSHPTFPKRITRSTLPLSHQTLTKPNHALKIKCSISKPPTAAPFTKEAPTTEPFVSRFASGEPRKGADILVEALERQGVTTVFAYPGGASMEIHQALTRSAAIRNVLPRHEQGGVFAAEGYARSSGLPGVCIATSGPGATNLVSGLADALMDSVPVVAITGQVARRMIGTDAFQETPIVEVSRSITKHNYLILDVDDIPRVVAEAFFVATSGRPGPVLIDIPKDVQQQLAVPNWDEPVNLPGYLARLPRPPAEAQLEHIVRLIMEAQKPVLYVGGGSLNSSAELRRFVELTGIPVASTLMGLGTFPIGDEYSLQMLGMHGTVYANYAVDNSDLLLAFGVRFDDRVTGKLEAFASRAKIVHIDIDSAEIGKNKQAHVSVCADLKLALKGINMILEEKGVEGKFDLGGWREEINVQKHKFPLGYKTFQDAISPQHAIEVLDELTNGDAIVSTGVGQHQMWAAQFYKYKRPRQWLTSGGLGAMGFGLPAAIGAAVANPGAVVVDIDGDGSFIMNVQELATIRVENLPVKILLLNNQHLGMVVQLEDRFYKSNRAHTYLGDPSSESEIFPNMLKFADACGIPAARVTKKEELRAAIQRMLDTPGPYLLDVIVPHQEHVLPMIPSNGSFKDVITEGDGRTRY
modifications: ALS1 variant P178A W555L
B2: GM-ALS_P178S: Glycine Max ALS1 variant with a P→S mutation at position 178 (protein)
chain: MAATASRTTRFSSSSSHPTFPKRITRSTLPLSHQTLTKPNHALKIKCSISKPPTAAPFTKEAPTTEPFVSRFASGEPRKGADILVEALERQGVTTVFAYPGGASMEIHQALTRSAAIRNVLPRHEQGGVFAAEGYARSSGLPGVCIATSGPGATNLVSGLADALMDSVPVVAITGQVSRRMIGTDAFQETPIVEVSRSITKHNYLILDVDDIPRVVAEAFFVATSGRPGPVLIDIPKDVQQQLAVPNWDEPVNLPGYLARLPRPPAEAQLEHIVRLIMEAQKPVLYVGGGSLNSSAELRRFVELTGIPVASTLMGLGTFPIGDEYSLQMLGMHGTVYANYAVDNSDLLLAFGVRFDDRVTGKLEAFASRAKIVHIDIDSAEIGKNKQAHVSVCADLKLALKGINMILEEKGVEGKFDLGGWREEINVQKHKFPLGYKTFQDAISPQHAIEVLDELTNGDAIVSTGVGQHQMWAAQFYKYKRPRQWLTSGGLGAMGFGLPAAIGAAVANPGAVVVDIDGDGSFIMNVQELATIRVENLPVKILLLNNQHLGMVVQWEDRFYKSNRAHTYLGDPSSESEIFPNMLKFADACGIPAARVTKKEELRAAIQRMLDTPGPYLLDVIVPHQEHVLPMIPSNGSFKDVITEGDGRTRY
modifications: ALS1 variant P178S
B3: GM-ALS_A103T_P178S_D357E: Glycine Max ALS1 with A→T at 103, P→S at 178 and D→E at 357 (protein)
chain: MAATASRTTRFSSSSSHPTFPKRITRSTLPLSHQTLTKPNHALKIKCSISKPPTAAPFTKEAPTTEPFVSRFASGEPRKGADILVEALERQGVTTVFAYPGGTSMEIHQALTRSAAIRNVLPRHEQGGVFAAEGYARSSGLPGVCIATSGPGATNLVSGLADALMDSVPVVAITGQVSRRMIGTDAFQETPIVEVSRSITKHNYLILDVDDIPRVVAEAFFVATSGRPGPVLIDIPKDVQQQLAVPNWDEPVNLPGYLARLPRPPAEAQLEHIVRLIMEAQKPVLYVGGGSLNSSAELRRFVELTGIPVASTLMGLGTFPIGDEYSLQMLGMHGTVYANYAVDNSDLLLAFGVRFDERVTGKLEAFASRAKIVHIDIDSAEIGKNKQAHVSVCADLKLALKGINMILEEKGVEGKFDLGGWREEINVQKHKFPLGYKTFQDAISPQHAIEVLDELTNGDAIVSTGVGQHQMWAAQFYKYKRPRQWLTSGGLGAMGFGLPAAIGAAVANPGAVVVDIDGDGSFIMNVQELATIRVENLPVKILLLNNQHLGMVVQWEDRFYKSNRAHTYLGDPSSESEIFPNMLKFADACGIPAARVTKKEELRAAIQRMLDTPGPYLLDVIVPHQEHVLPMIPSNGSFKDVITEGDGRTRY
modifications: ALS1 variant A103T P178S D357E
B4: GM-ALS_A103T_P178S: Glycine Max ALS1 with A→T at position 103 and P→S at position 178 (protein)
chain: MAATASRTTRFSSSSSHPTFPKRITRSTLPLSHQTLTKPNHALKIKCSISKPPTAAPFTKEAPTTEPFVSRFASGEPRKGADILVEALERQGVTTVFAYPGGTSMEIHQALTRSAAIRNVLPRHEQGGVFAAEGYARSSGLPGVCIATSGPGATNLVSGLADALMDSVPVVAITGQVSRRMIGTDAFQETPIVEVSRSITKHNYLILDVDDIPRVVAEAFFVATSGRPGPVLIDIPKDVQQQLAVPNWDEPVNLPGYLARLPRPPAEAQLEHIVRLIMEAQKPVLYVGGGSLNSSAELRRFVELTGIPVASTLMGLGTFPIGDEYSLQMLGMHGTVYANYAVDNSDLLLAFGVRFDDRVTGKLEAFASRAKIVHIDIDSAEIGKNKQAHVSVCADLKLALKGINMILEEKGVEGKFDLGGWREEINVQKHKFPLGYKTFQDAISPQHAIEVLDELTNGDAIVSTGVGQHQMWAAQFYKYKRPRQWLTSGGLGAMGFGLPAAIGAAVANPGAVVVDIDGDGSFIMNVQELATIRVENLPVKILLLNNQHLGMVVQWEDRFYKSNRAHTYLGDPSSESEIFPNMLKFADACGIPAARVTKKEELRAAIQRMLDTPGPYLLDVIVPHQEHVLPMIPSNGSFKDVITEGDGRTRY
modifications: ALS1 variant A103T P178S
B5: GM-ALS_P178S_D357E: Glycine Max ALS1 with P→S at position 178 and D→E at position 357 (protein)
chain: MAATASRTTRFSSSSSHPTFPKRITRSTLPLSHQTLTKPNHALKIKCSISKPPTAAPFTKEAPTTEPFVSRFASGEPRKGADILVEALERQGVTTVFAYPGGASMEIHQALTRSAAIRNVLPRHEQGGVFAAEGYARSSGLPGVCIATSGPGATNLVSGLADALMDSVPVVAITGQVSRRMIGTDAFQETPIVEVSRSITKHNYLILDVDDIPRVVAEAFFVATSGRPGPVLIDIPKDVQQQLAVPNWDEPVNLPGYLARLPRPPAEAQLEHIVRLIMEAQKPVLYVGGGSLNSSAELRRFVELTGIPVASTLMGLGTFPIGDEYSLQMLGMHGTVYANYAVDNSDLLLAFGVRFDERVTGKLEAFASRAKIVHIDIDSAEIGKNKQAHVSVCADLKLALKGINMILEEKGVEGKFDLGGWREEINVQKHKFPLGYKTFQDAISPQHAIEVLDELTNGDAIVSTGVGQHQMWAAQFYKYKRPRQWLTSGGLGAMGFGLPAAIGAAVANPGAVVVDIDGDGSFIMNVQELATIRVENLPVKILLLNNQHLGMVVQWEDRFYKSNRAHTYLGDPSSESEIFPNMLKFADACGIPAARVTKKEELRAAIQRMLDTPGPYLLDVIVPHQEHVLPMIPSNGSFKDVITEGDGRTRY
modifications: ALS1 variant P178S D357E

Tests used:
G. max ALS1 protein [1] = test: Substrate specificity ratio (Rf), pyruvate versus 2-ketobutyrate, LC-MS of reduced products; type: biochemical, Glycine max; conditions: ratio of [pyruvate] to [2-ketobutyrate] giving equal rates of acetolactate and acetohydroxybutyrate formation, 25 mM pyruvate
From the text: The “substrate specificity ratio”, or “Rf”, characterizes the specificity of the ALS enzyme for AHB formation relative to AL formation (Gollop et al. (1989) Biochemistry 28:6310-6317). Rf is the ratio of [pyruvate] to [2-ketobutyrate] that results in equal rates of formation of acetolactate and acetohydroxybutyrate. Rf is a constant at all substrate concentrations. The substrate specificity ratio is ˜114 for the wild type Glycine max ALS1 enzyme (SEQ ID NO:1) compared to ˜3 for the highly resistant allele (HRA) double mutant variant (SEQ ID NO: 10) of the Glycine max ALS1. The soybean HRA sequence is disclosed, for example, in WO2007/024782, herein incorporated by reference.
Substrate preference was determined using the assay described in Example 3; however, the assay was conducted using a constant concentration of pyruvate (25 mM) and varying concentrations of the second substrate, 2-ketobutyrate. Each reaction involving a specific ratio of pyruvate to 2-ketobutyrate, after a set period of time, was quenched by addition of sodium borohydride (7-fold excess) to form the reduced adducts of the products of the two substrates namely; reduced acetolactate for the reaction with pyruvate and reduced aceto hydroxybutyrate for the 2-ketobutyrate reaction. The relative amounts of the two reduced products was determined by first, chromatographic separation using a 4.6×250 mm dC18 column (Atlantis) equilibrated with a 0.1% formic acid solution and subsequent elution using a methanol gradient at 0.7 ml/min, followed by detection using a Thermo FINNIGAN® LTQ® Mass Spectrometer (MS). The products of the two reactions were quantified by integration of the MS signals. The % of the amount of each of the reduced products was then plotted versus the concentration of 2-ketobutyrate. As the 2-ketobutyrate amount increased there was a consequent increase in reduced acetohydroxybutyrate (AHB) and decrease in reduced acetolactate (AL). […] The substrate specificity ratio was ˜114 for the wild type enzyme compared to 3 for the highly resistant allele (HRA) double mutant ALS variant (SEQ ID NO: 10).

G. max ALS1 protein [2] = test: Colorimetric ALS kinetic assay (Km, kcat) with pyruvate as substrate; type: biochemical, Glycine max
Procedure: A survey of known ALS (AcetoLactate Synthase) gene variants (Table 2) was performed, and a number of ALS variants were selected for kinetic evaluation based on breadth and strength of insensitivity to ALS-inhibitor herbicides as well as kinetic activity parameters including the ratio of substrate preferences. The selected ALS gene variants (Table 3) were generated by PCR mediated site-directed mutagenesis. Finnzymes PHUSION® DNA polymerase (Cat. No. F-530S) was used for the PCR reactions, following the instructions for recommended temperatures and cycles in the PHUSION® protocol. Some mutagenesis reactions were assisted by the use of IN-FUSION® enzyme (Clontech Cat. No. 639620) to circularize a linear plasmid with the mutation located within the 15 nucleotide overlapping ends, via recombination following the manufacturer's protocol for primer design and reaction conditions. The ALS genes, beginning with encoded amino acids SISK, (S48 to K51 in the G. max ALS1 protein (SEQ ID NO:1) corresponding to the mature protein N-terminus of the chloroplast localized enzyme), were cloned into the PMAL® E. coli expression vector (New England Biolabs) to express ALS as a fusion protein with a Maltose-Binding Protein (MBP) at the N-terminus with a thrombin site for cleavage and a His-6 tag for affinity purification. All in vitro protein characterization described in the examples was carried out with the isolated proteins after cleavage from the His-MBP fusion partner.
Km and Kcat determinations for recombinant ALS variants (with respect to pyruvate as the substrate) were performed using a colorimetric assay. ALS assays were carried out in 96-well microplates with 150 ul reaction containing 25 mM potassium phosphate, 0.2 mg/ml BSA, 15 mM MgCl2, 0.7 mM TPP, 28 uM FAD and 0-100 mM sodium pyruvate. Reactions were initiated by the addition of ALS enzyme to a final amount of 0.8 ug/well. Parameters for Km and Vmax were determined by fitting the velocity versus substrate concentration data to a rectangular hyperbola using GraphPad Prism software. Kcat values were determined from Vmax based on protein concentration in the reactions.

Molecule | Substrate specificity ratio (Rf) (G. max ALS1 protein [1]) | Substrate specificity ratio (Rf) (G. max ALS1 protein [1]; listed as HRA) | Km (G. max ALS1 protein [2]) [mM] | kcat (G. max ALS1 protein [2]) [s⁻¹]
B1 | 2.9 | 3 | 15 | 1.5
B2 | 104.0 | – | 1.6 | 1.15
B3 | 114.0 | – | 21 | 1.05
B4 | 75.0 | – | 10 | 2.08
B5 | 100.0 | – | 6 | 3.17
